Data on 4 molecules can be found in article PMC5156392, “Structure and Mechanism of Staphylococcus aureus TarS, the Wall Teichoic Acid β-glycosyltransferase Involved in Methicillin Resistance” (PLoS Pathogens, 2016).

In data set [1] the test system is CC(=O)N[C@H]1[C@@H](OP(=O)(O)OP(=O)(O)OC[C@H]2O[C@@H](n3ccc(=O)[nH]c3=O)[C@H](O)[C@@H]2O)O[C@H](CO)[C@@H](O)[C@@H]1O. The data set can be described thus: purified protein. Conditions: donor hydrolysis reaction without polyRboP acceptor; varied UDP-GlcNAc.
Data set [2] concerns the molecule itself. Description: SEC-MALS; Superdex 200 HR 10/30, 30 mM Hepes pH 7.3, 500 mM NaCl, 5% glycerol; full-length TarS run at 25 μM. In general terms: In gel filtration, larger molecules generally elute earlier.
The data set “crystal structure” concerns the molecule itself. The data set can be described thus: crystal structure.

As a reminder, the Km is the substrate concentration at which the rate is half of its maximum. As to “TarS1-349 (Staphylococcus aureus subsp. aureus Mu50)”, the Michaelis constant (Km) in data set [1] is 21 ± 2 µM.
“full-length TarS (TarS 1-573; wild-type) (Staphylococcus aureus subsp. aureus Mu50)”: the Km in data set [1] is 45 ± 3 µM.

B1: Staphylococcus aureus TarS, full-length protein (1-573) (enzyme)
chain: MMKFSVIVPTYNSEKYITELLNSLAKQDFPKTEFEVVVVDDCSTDQTLQIVEKYRNKLNLKVSQLETNSGGPGKPRNVALKQAEGEFVLFVDSDDYINKETLKDAAAFIDEHHSDVLLIKMKGVNGRGVPQSMFKETAPEVTLLNSRIIYTLSPTKIYRTALLKDNDIYFPEELKSAEDQLFTMKAYLNANRISVLSDKAYYYATKREGEHMSSAYVSPEDFYEVMRLIAVEILNADLEEAHKDQILAEFLNRHFSFSRTNGFSLKVKLEEQPQWINALGDFIQAVPERVDALVMSKLRPLLHYARAKDIDNYRTVEESYRQGQYYRFDIVDGKLNIQFNEGEPYFEGIDIAKPKVKMTAFKFDNHKIVTELTLNEFMIGEGHYDVRLKLHSRNKKHTMYVPLSVNANKQYRFNIMLEDIKAYLPKEKIWDVFLEVQIGTEVFEVRVGNQRNKYAYTAETSALIHLNNDFYRLTPYFTKDFNNISLYFTAITLTDSISMKLKGKNKIILTGLDRGYVFEEGMASVVLKDDMIMGMLSQTSENEVEILLSKDIKKRDFKNIVKLNTAHMTYSLK
notes: also called full-length TarS; wild-type TarS; source: E. coli Rosetta (DE3), pET41b, purified (Heparin HP, Superdex 200)
The stoichiometry N is the number of molecules, sites or subunits per partner or assembly. In the case of B1, in data set [2], the “stoichiometry N” value turned out to be 3.

B2: TarS_(217-573) (domain or fragment)
chain: VSPEDFYEVMRLIAVEILNADLEEAHKDQILAEFLNRHFSFSRTNGFSLKVKLEEQPQWINALGDFIQAVPERVDALVMSKLRPLLHYARAKDIDNYRTVEESYRQGQYYRFDIVDGKLNIQFNEGEPYFEGIDIAKPKVKMTAFKFDNHKIVTELTLNEFMIGEGHYDVRLKLHSRNKKHTMYVPLSVNANKQYRFNIMLEDIKAYLPKEKIWDVFLEVQIGTEVFEVRVGNQRNKYAYTAETSALIHLNNDFYRLTPYFTKDFNNISLYFTAITLTDSISMKLKGKNKIILTGLDRGYVFEEGMASVVLKDDMIMGMLSQTSENEVEILLSKDIKKRDFKNIVKLNTAHMTYSLK
notes: source: limited thermolysin proteolysis of purified full-length TarS (from E. coli Rosetta (DE3)), crystallised directly
Take B2: the binding result in the data set “crystal structure” was “binds”.
